Source: patent publication US20220331457A1 (TELIX INTERNATIONAL, published 2022)
Numbering of substitutions follows the chain as printed. Numbers in names are those of the source.

B1: Girentuximab humanised VH4/Vκ3 IgG1 (antibody)
heavy: not shown
light: DIQMTQSPSSLSASVGDRVTITCKASQNVVSAVAWYQQKPGQAPRLLIYSASNRYTGVPDRFSGSGSGTDFTLTISSLQAEDLADYFCQQYSNYPWTFGGGTKVEIKRTVAAPSVFIFPPSDEQLKSGTASVVCLLNNFYPREAKVQWKVDNALQSGNSQESVTEQDSKDSTYSLSSTLTLSKADYEKHKVYACEVTHQGLSSPVTKSFNRGEC
B2: Girentuximab humanised VH4/Vκ4 IgG4 (S228P, L235E, H310A, H435Q) (antibody)
heavy: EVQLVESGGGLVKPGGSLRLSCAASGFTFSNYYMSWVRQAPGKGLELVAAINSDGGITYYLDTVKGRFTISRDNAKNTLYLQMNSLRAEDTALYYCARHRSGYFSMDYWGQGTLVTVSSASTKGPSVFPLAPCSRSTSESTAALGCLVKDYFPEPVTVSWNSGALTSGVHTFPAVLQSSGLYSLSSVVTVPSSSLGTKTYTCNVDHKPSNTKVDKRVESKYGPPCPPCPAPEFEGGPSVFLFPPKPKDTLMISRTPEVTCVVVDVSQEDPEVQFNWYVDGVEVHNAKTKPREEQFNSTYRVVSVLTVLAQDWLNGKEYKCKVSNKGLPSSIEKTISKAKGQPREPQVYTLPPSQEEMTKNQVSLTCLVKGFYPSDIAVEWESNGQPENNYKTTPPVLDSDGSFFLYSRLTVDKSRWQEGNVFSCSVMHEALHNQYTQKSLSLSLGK
light: B1 light with F87Y
B3: Girentuximab humanised VH4/Vκ4 IgG1 (antibody)
heavy: not shown
light: B1 light with F87Y
B4: Girentuximab humanised VH3/Vκ4 IgG4 (S228P, L235E, H310A, H435Q) (antibody)
heavy: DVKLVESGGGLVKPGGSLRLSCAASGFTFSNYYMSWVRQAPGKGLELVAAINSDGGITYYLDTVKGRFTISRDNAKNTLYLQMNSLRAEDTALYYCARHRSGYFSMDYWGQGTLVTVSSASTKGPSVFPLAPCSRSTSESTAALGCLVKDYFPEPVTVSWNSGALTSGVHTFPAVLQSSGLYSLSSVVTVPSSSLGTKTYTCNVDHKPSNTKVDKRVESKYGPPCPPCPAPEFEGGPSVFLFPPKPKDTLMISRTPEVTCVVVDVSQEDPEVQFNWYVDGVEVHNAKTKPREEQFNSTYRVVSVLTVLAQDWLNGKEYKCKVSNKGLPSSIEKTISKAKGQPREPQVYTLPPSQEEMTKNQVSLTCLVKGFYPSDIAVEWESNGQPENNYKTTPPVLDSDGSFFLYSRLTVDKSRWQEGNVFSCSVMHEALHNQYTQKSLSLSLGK
light: B1 light with F87Y
B5: Girentuximab humanised VH3/Vκ4 IgG1 (H310A, H435Q) (antibody)
heavy: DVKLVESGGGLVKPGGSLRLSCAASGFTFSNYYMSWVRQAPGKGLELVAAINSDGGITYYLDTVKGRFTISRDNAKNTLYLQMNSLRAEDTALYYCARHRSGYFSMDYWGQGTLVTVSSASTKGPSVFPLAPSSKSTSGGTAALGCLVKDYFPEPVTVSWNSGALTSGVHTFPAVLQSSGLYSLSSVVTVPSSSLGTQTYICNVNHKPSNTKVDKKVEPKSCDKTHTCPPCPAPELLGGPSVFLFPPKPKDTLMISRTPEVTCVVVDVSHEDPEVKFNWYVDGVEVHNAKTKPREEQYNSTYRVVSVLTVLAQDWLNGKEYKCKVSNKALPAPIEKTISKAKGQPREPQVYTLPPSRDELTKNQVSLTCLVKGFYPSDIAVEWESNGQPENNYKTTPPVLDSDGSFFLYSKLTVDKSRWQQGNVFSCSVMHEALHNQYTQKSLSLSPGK
light: B1 light with F87Y
B6: Girentuximab humanised VH4/Vκ3 IgG4 (S228P, L235E, H310A, H435Q) (antibody)
heavy: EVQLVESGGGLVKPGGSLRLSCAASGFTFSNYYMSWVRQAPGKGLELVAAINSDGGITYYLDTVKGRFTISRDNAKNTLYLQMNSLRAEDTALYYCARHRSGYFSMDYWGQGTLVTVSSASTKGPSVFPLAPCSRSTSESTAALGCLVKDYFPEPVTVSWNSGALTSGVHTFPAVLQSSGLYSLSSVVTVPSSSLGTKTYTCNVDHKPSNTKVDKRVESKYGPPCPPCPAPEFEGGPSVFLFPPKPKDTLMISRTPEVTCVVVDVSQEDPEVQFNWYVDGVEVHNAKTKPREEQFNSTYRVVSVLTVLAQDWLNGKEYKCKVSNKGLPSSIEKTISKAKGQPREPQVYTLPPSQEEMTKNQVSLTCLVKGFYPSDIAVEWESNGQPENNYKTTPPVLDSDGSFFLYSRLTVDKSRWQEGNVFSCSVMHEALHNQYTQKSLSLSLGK
light: B1 light
B7: Girentuximab humanised VH4/Vκ3 IgG1 (H310A, H435Q) (antibody)
heavy: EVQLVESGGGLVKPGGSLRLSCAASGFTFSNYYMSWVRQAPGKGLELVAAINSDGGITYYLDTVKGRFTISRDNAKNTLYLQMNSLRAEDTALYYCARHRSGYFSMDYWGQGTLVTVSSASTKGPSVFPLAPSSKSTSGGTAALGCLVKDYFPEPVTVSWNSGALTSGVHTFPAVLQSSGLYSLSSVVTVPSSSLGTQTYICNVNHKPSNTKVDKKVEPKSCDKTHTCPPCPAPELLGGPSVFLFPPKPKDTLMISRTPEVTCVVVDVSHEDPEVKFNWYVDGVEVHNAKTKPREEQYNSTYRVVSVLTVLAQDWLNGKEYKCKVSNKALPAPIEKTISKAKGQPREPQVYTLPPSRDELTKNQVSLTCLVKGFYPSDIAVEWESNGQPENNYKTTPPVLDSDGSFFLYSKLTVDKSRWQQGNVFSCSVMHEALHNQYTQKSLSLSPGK
light: B1 light
B8: Girentuximab humanised VH4/Vκ4 IgG1 (H310A, H435Q) (antibody)
heavy: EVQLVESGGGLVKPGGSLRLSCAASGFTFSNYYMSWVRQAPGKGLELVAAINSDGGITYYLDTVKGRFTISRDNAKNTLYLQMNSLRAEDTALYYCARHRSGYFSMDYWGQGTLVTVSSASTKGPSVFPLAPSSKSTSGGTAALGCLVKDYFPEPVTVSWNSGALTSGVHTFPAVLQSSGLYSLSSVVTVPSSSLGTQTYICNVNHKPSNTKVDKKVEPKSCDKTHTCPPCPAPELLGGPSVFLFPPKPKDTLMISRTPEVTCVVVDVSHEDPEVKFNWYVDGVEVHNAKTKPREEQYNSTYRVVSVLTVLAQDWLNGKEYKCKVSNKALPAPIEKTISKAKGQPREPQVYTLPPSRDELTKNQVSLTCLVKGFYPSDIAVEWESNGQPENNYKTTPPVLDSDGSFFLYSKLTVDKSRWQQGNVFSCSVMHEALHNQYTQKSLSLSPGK
light: B1 light with F87Y
B9: Girentuximab humanised VH3/Vκ4 IgG1 (antibody)
heavy: not shown
light: B1 light with F87Y
B10: Girentuximab humanised VH4/Vκ2 IgG1 (antibody)
heavy: not shown
light: B1 light with Q3V, S63T
B11: Girentuximab humanised VH3/Vκ3 IgG1 (antibody)
heavy: not shown
light: B1 light
B12: Girentuximab humanised VH3/Vκ2 IgG1 (antibody)
heavy: not shown
light: B1 light with Q3V, S63T
B13: Chimeric Girentuximab (VH0/Vκ0) IgG1 (H310A, H435Q) (antibody)
heavy: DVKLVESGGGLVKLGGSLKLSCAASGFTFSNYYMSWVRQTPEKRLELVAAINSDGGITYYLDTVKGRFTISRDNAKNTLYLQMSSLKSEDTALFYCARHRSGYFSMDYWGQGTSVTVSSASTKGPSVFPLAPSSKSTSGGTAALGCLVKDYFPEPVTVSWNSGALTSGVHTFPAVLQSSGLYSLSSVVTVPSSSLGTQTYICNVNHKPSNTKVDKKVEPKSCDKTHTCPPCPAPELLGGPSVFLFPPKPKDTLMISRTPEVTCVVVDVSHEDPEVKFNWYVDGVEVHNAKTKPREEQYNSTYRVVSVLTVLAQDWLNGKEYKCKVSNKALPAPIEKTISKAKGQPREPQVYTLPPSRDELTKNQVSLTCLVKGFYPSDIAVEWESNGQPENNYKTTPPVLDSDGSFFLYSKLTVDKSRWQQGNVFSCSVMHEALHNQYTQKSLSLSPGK
light: DIVMTQSQRFMSTTVGDRVSITCKASQNVVSAVAWYQQKPGQSPKLLIYSASNRYTGVPDRFTGSGSGTDFTLTISNMQSEDLADFFCQQYSNYPWTFGGGTKLEIKRTVAAPSVFIFPPSDEQLKSGTASVVCLLNNFYPREAKVQWKVDNALQSGNSQESVTEQDSKDSTYSLSSTLTLSKADYEKHKVYACEVTHQGLSSPVTKSFNRGEC
notes: Chimeric antibody on the FcRn-null IgG1 backbone; also called chimeric IgG1 (H310A, H435Q)
B14: Chimeric Girentuximab (VH0/Vκ0) IgG4 (S228P, L235E, H310A, H435Q) (antibody)
heavy: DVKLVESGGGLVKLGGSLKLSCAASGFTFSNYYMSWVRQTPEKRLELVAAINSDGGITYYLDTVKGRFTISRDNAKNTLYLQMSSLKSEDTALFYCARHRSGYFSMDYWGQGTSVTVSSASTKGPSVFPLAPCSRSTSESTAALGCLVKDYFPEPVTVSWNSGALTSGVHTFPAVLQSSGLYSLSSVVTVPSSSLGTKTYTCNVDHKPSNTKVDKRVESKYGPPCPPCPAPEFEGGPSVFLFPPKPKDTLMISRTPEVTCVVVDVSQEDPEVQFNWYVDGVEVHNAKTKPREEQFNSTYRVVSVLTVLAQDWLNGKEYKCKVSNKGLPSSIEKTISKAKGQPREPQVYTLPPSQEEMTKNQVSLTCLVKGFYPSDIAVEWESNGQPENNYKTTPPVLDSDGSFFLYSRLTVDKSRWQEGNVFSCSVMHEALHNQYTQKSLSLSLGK
light: B13 light
notes: Chimeric antibody on the FcRn- and FcRγ-null IgG4 backbone; also called chimeric IgG4 (S228P, L235E, H310A, H435Q)
B15: Girentuximab humanised VH4/Vκ1 IgG1 (antibody)
heavy: not shown
light: B1 light with Q3V, S10F, R45K, S63T, A80S
B16: Girentuximab humanised VH3/Vκ5 IgG1 (antibody)
heavy: not shown
light: B1 light with L46R, F87Y
B17: Girentuximab humanised VH5/Vκ2 IgG1 (antibody, V domains shown)
VH: EVQLVESGGGLVKPGGSLRLSCAASGFTFSNYYMSWVRQAPGKGLEWVAAINSDGGITYYLDTVKGRFTISRDNAKNTLYLQMNSLRAEDTALYYCARHRSGYFSMDYWGQGTLVTVSS
VL: DIVMTQSPSSLSASVGDRVTITCKASQNVVSAVAWYQQKPGQAPRLLIYSASNRYTGVPDRFTGSGSGTDFTLTISSLQAEDLADYFCQQYSNYPWTFGGGTKVEIKR
B18: Girentuximab humanised VH3/Vκ1 IgG1 (antibody)
heavy: not shown
light: B1 light with Q3V, S10F, R45K, S63T, A80S
B19: Girentuximab humanised VH1/Vκ3 IgG1 (antibody, V domains shown)
VH: B17 VH with E1D, Q3K, W47L, N84S, R87K, A88S, L114S
VL: B17 VL with V3Q, T63S
B20: Girentuximab humanised VH5/Vκ3 IgG1 (antibody, V domains shown)
VH: B17 VH
VL: B17 VL with V3Q, T63S
B21: Girentuximab humanised VH5/Vκ4 IgG1 (antibody, V domains shown)
VH: B17 VH
VL: B17 VL with V3Q, T63S, F87Y
B22: Girentuximab humanised VH4/Vκ5 IgG1 (antibody)
heavy: not shown
light: B1 light with L46R, F87Y
B23: Girentuximab humanised VH1/Vκ1 IgG1 (antibody, V domains shown)
VH: B17 VH with E1D, Q3K, W47L, N84S, R87K, A88S, L114S
VL: B17 VL with S10F, R45K, A80S
B24: Girentuximab humanised VH1/Vκ4 IgG1 (antibody, V domains shown)
VH: B17 VH with E1D, Q3K, W47L, N84S, R87K, A88S, L114S
VL: B17 VL with V3Q, T63S, F87Y
B25: Girentuximab humanised VH5/Vκ1 IgG1 (antibody, V domains shown)
VH: B17 VH
VL: B17 VL with S10F, R45K, A80S
B26: Girentuximab humanised VH1/Vκ2 IgG1 (antibody, V domains shown)
VH: B17 VH with E1D, Q3K, W47L, N84S, R87K, A88S, L114S
VL: B17 VL
B27: Girentuximab humanised VH5/Vκ5 IgG1 (antibody, V domains shown)
VH: B17 VH
VL: B17 VL with V3Q, L46R, T63S, F87Y
B28: Girentuximab humanised VH1/Vκ5 IgG1 (antibody, V domains shown)
VH: B17 VH with E1D, Q3K, W47L, N84S, R87K, A88S, L114S
VL: B17 VL with V3Q, L46R, T63S, F87Y

Target: T1, human carbonic anhydrase IX (CAIX) (human, UniProt Q16790 38-414)
Experiment: Biacore multicycle kinetic analysis (conclusion of Example 1)
Experimental: (§1) The purified antibodies were diluted to a concentration of 1 μg/ml in HBS-P+. […] Following capture, the surface was allowed to stabilise. Kinetic data was obtained using a flow rate of 30 μl/min to minimise any potential mass transfer effects. For the kinetics analysis, carbonic anhydrase IX (CAIX) was used. Multiple repeats of the blank (CAIX) and a repeat of a single concentration of the analyte were programmed into the kinetic run in order to check the stability of both the surface and analyte over the kinetic cycles. For kinetic analysis, a two-fold dilution range was selected from 50 nM to 0.078 nM CAIX. The association phase of CAIX was monitored for 280 seconds and the dissociation phase was monitored for 300 seconds. Regeneration of the Protein G surface was conducted using an injection of 10 mM glycine-HCL pH 1.5 followed by an injection of 10 mM glycine-HCL pH 1.5 containing 0.5% P20. The signal from the reference channel Fc1 was subtracted from that of Fc2, Fc3 and Fc4 to correct for differences in non-specific binding to a reference surface, and a global Rmax parameter was used in the 1-to-1 binding model. The relative KD was calculated by dividing the KD of the humanised variants by that of the chimeric antibody on the same chip.

Binder | binding relative to VH0/Vκ0 with the same IgG backbone
B1 | ≤ 2 fold
B2 | ≤ 2 fold
B3 | ≤ 2 fold
B4 | ≤ 2 fold
B5 | ≤ 2 fold
B6 | ≤ 2 fold
B7 | ≤ 2 fold
B8 | ≤ 2 fold
B9 | ≤ 2 fold

Target: T1, human carbonic anhydrase IX (CAIX)
Experiment: Biacore multicycle analysis and competition ELISA (conclusion of Example 1)

Binder | binding relative to the IgG1 chimeric antibody
B1 | ≤ 2 fold
B10 | ≤ 2 fold
B3 | ≤ 2 fold
B11 | ≤ 2 fold
B12 | ≤ 2 fold
B9 | ≤ 2 fold

Target: T1, human carbonic anhydrase IX (CAIX)
Experiment: competition ELISA on coated CAIX; competitor: biotinylated chimeric Girentuximab IgG1
Experimental: CAIX was diluted in 1×PBS to 0.5 μg/ml and 100 μl/well was coated overnight at 4° C. on a 96-well ELISA plate. The following day, the plate was washed 3× with 1×PBS/0.05% Tween (PBST) and blocked with 200 μl of 2% BSA/PBS for one hour at room temperature.
After washing the plate 3× with PBS-T, 100 μl of chimeric/test antibody mix was added to the ELISA plate.
For colour development, the plate was washed 3× with PBS-T following which 100 μl of TMB substrate was added and incubated for approximately five minutes at room temperature. The reaction was stopped with 50 μl of 3.0 M hydrochloric acid and absorbance was read immediately using a Dynex plate reader at 450 nm.

Binder | relative IC50 (IC50 of the variant divided by IC50 of the Girentuximab chimeric IgG1 antibody on the same plate)
B13 | ≤ 2 fold
B14 | ≤ 2 fold
B1 | ≤ 2 fold
B10 | ≤ 2 fold
B3 | ≤ 2 fold
B11 | ≤ 2 fold
B12 | ≤ 2 fold
B9 | ≤ 2 fold

Target: T1, human carbonic anhydrase IX (CAIX)
Experiment: SPR (Biacore T200), multicycle kinetics; purified antibody captured on Protein G chip, CAIX as analyte
Experimental: as §1

Binder | relative KD (KD of the variant divided by KD of the chimeric antibody on the same chip)
B13 | ≤ 2 fold
B14 | ≤ 2 fold
B1 | ≤ 2 fold
B10 | ≤ 2 fold
B3 | ≤ 2 fold
B11 | ≤ 2 fold
B12 | ≤ 2 fold
B9 | ≤ 2 fold

Target: T1, human carbonic anhydrase IX (CAIX)
Experiment: SPR (Biacore T200), multicycle kinetics; purified CHO-expressed antibody captured on Protein G chip, CAIX as analyte
Experimental: as §1

Binder | relative KD (KD of the variant divided by KD of the chimeric antibody with the same IgG constant domain)
B1 | ≤ 2 fold
B2 | ≤ 2 fold
B3 | ≤ 2 fold
B4 | ≤ 2 fold
B5 | ≤ 2 fold
B6 | ≤ 2 fold
B7 | ≤ 2 fold
B8 | ≤ 2 fold
B9 | ≤ 2 fold

Target: T1, human carbonic anhydrase IX (CAIX)
Experiment: SPR (Biacore T200), single cycle kinetics; antibody in HEK EBNA supernatant captured on Protein G chip, CAIX as analyte
Experimental: All single cycle kinetic experiments were run at 25° C. with HBS-P+ running buffer (pH 7.4) (GE Healthcare, Little Chalfont, UK). For direct comparison, all antibodies were captured on a Protein G chip (GE Healthcare, Uppsala, Sweden).
Antibodies were diluted in running buffer to a final concentration of 0.5 μg/ml, based on concentrations assessed by ELISA titre. At the start of each cycle, antibodies were loaded onto Fc2, Fc3 and Fc4 of the Protein G chip (GE Healthcare, Little Chalfont, UK). IgGs were captured at a flow rate of 10 μl/min to give an immobilisation level (RL) of ˜79 RU, the theoretical value to obtain an Rmax of ˜50 RU. The surface was then allowed to stabilise. Single cycle kinetic data was obtained with Carbonic Anhydrase IX (CAIX, Stratech, Newmarket, UK) as the analyte at a flow rate of 30 μl/min to minimise any potential mass transport limitations. […] The signal from the reference channel Fc1 (no antibody) was subtracted from that of Fc2, Fc3 and Fc4 to correct for differences in non-specific binding to a reference surface. […] The association phase for the four injections of increasing concentrations of CAIX was monitored for 200 seconds each time and a single dissociation phase was measured for 300 seconds following the last injection of CAIX. Regeneration of the Protein G surface was conducted using an injection of 10 mM glycine-HCL pH 1.5 followed by an injection of 10 mM glycine-HCL pH 1.5 containing 0.5% P20.

Binder | relative KD (against the reference chimeric VH0/Vκ0 IgG1) | binding result
B1 | ≤ 2 fold | 
B15 | ≤ 2 fold | 
B16 |  | binds
B17 |  | binds
B10 | ≤ 2 fold | 
B18 | ≤ 2 fold | 
B19 | ≤ 2 fold | 
B20 |  | binds
B21 |  | binds
B22 |  | binds
B3 | ≤ 2 fold | 
B11 | ≤ 2 fold | 
B23 | ≤ 2 fold | 
B24 | ≤ 2 fold | 
B12 | ≤ 2 fold | 
B25 |  | binds
B26 | ≤ 2 fold | 
B27 |  | binds
B9 | ≤ 2 fold | 
B28 |  | binds
